Experiment [1] addresses HLA-A*26:01. Description: IEDB peptide-MHC binding, purified MHC/direct/fluorescence; filed as Kd, often an IC50 or EC50 that approximates it; ≥ and ≤ were set here for values at or beyond the usual limits of such assays. Conditions: source organism: Mammarenavirus juninense.
For a further experiment, the target named is HLA-C*12:03. Described as above. The following applies: source organism: Mammarenavirus machupoense.
In the next experiment the target is HLA-B*35:01. Description: IEDB peptide-MHC binding, purified MHC/competitive/fluorescence; filed as Kd, often an IC50 or EC50 that approximates it; ≥ and ≤ were set here for values at or beyond the usual limits of such assays. Conditions: source organism: Mammarenavirus machupoense.
The target in experiment [2] is HLA-A*03:01. Description: IEDB peptide-MHC binding, purified MHC/competitive/fluorescence; ≥ and ≤ were set here for values at or beyond the usual limits of such assays. Conditions: source organism: Sudan ebolavirus.
The target of another experiment is HLA-A*11:01. The description is as above. The following applies: source organism: Sudan ebolavirus.
A further experiment concerns the target HLA-A*02:03. Description: IEDB peptide-MHC binding, purified MHC/direct/fluorescence; filed as Kd, often an IC50 or EC50 that approximates it; ≥ and ≤ were set here for values at or beyond the usual limits of such assays.
A further experiment has as its target HLA-A*02:11. The description is as above.
For another experiment, the target named is HLA-A*02:12. The description is as above.
The target in another experiment is HLA-A*02:16. The description is as above.
The target of a further experiment is HLA-A*02:19. The experiment is described as above.
Experiment [3] concerns the target HLA-A*03:01. Described as above.
The target in the next experiment is HLA-A*23:01. Described as above.
A further experiment has as its target HLA-A*24:03. The description is as above.
The target of the next experiment is HLA-A*29:02. The description is as above.
In the next experiment the target is HLA-B*27:05. The experiment is described as above. The following applies: source organism: Zaire ebolavirus.
The target in the next experiment is HLA-A*02:01. In words: IEDB peptide-MHC binding, purified MHC/competitive/fluorescence; filed as Kd, often an IC50 or EC50 that approximates it; ≥ and ≤ were set here for values at or beyond the usual limits of such assays.
For experiment [4], the target named is HLA-A*26:01. Described as above.
The next experiment deals with HLA-A*69:01. Described as above.
The target in experiment [5] is HLA-B*15:01. The experiment is described as above.
The target of another experiment is HLA-B*15:17. Described as above.
The target in the next experiment is HLA-B*18:01. Described as above.
The target of a further experiment is HLA-B*27:03. The experiment is described as above.
The next experiment has as its target HLA-B*39:01. The description is as above.
Another experiment deals with HLA-B*46:01. The description is as above.
Experiment [6] has as its target HLA-B*51:01. Described as above.
Another experiment deals with HLA-B*57:01. The experiment is described as above.
A further experiment addresses HLA-A*68:02. Description: IEDB peptide-MHC binding, purified MHC/direct/fluorescence; filed as Kd, often an IC50 or EC50 that approximates it; ≥ and ≤ were set here for values at or beyond the usual limits of such assays.
The next experiment deals with HLA-A*31:01. Description: IEDB peptide-MHC binding, purified MHC/competitive/fluorescence; filed as Kd, often an IC50 or EC50 that approximates it; ≥ and ≤ were set here for values at or beyond the usual limits of such assays. The following applies: source organism: Zaire ebolavirus.
Experiment [7] concerns the target HLA-B*51:01. Description: IEDB peptide-MHC binding, purified MHC/direct/fluorescence; filed as Kd, often an IC50 or EC50 that approximates it; ≥ and ≤ were set here for values at or beyond the usual limits of such assays.
The target in the next experiment is HLA-B*07:02. The description is as above.
A further experiment concerns the target HLA-B*58:01. Description: IEDB peptide-MHC binding, purified MHC/competitive/fluorescence; filed as Kd, often an IC50 or EC50 that approximates it; ≥ and ≤ were set here for values at or beyond the usual limits of such assays. Conditions: source organism: Orthohantavirus andesense.
The target of experiment [8] is HLA-B*15:01. In words: IEDB peptide-MHC binding, purified MHC/direct/fluorescence; filed as Kd, often an IC50 or EC50 that approximates it; ≥ and ≤ were set here for values at or beyond the usual limits of such assays.
Setting [9] is: source organism: Zaire ebolavirus.
Setting [10] is: source organism: Orthohantavirus hantanense.
The mark [11] stands for this setting: source organism: Seoul virus 80-39.
The mark [12] stands for this setting: source organism: Limestone Canyon virus.
Where [13] appears, read: source organism: Orthohantavirus andesense.
The mark [14] stands for this setting: source organism: Orthohantavirus sinnombreense.
The mark [15] stands for this setting: source organism: Burkholderia mallei.
Setting [16] is: source organism: Yersinia pestis.

Bounds are passed on as bounds.

The term Kd denotes the concentration at which binding is half-saturated. Turning to DAMPGVLSY, the values for the Kd with HLA-A*26:01 [1], with HLA-C*12:03 and with HLA-B*35:01 were 2.1 nM, at least 20 µM and 0.5 nM, respectively.
Broadly, the IC50 is the concentration that inhibits the measured activity by half. Higher therefore signals lower potency. For DRLASTVIY, the results for the IC50 with HLA-A*03:01 [2] and in the experiment with HLA-A*11:01 were at least 257 µM and at least 120 µM, respectively. Besides, the Kd with HLA-A*02:03 (setting [9]), with HLA-A*02:11 (setting [9]), in the experiment with HLA-A*02:12 (setting [9]), with HLA-A*02:16 (setting [9]), in the experiment with HLA-A*02:19 (setting [9]) and in the experiment with HLA-A*03:01 [3] (setting [9]) was at least 20 µM each time. In addition, the Kd with HLA-A*23:01 (setting [9]) was at least 20 µM; with HLA-A*24:03 (setting [9]), at least 20 µM; with HLA-A*29:02 (setting [9]) it was at least 20 µM; in the experiment with HLA-B*27:05, 8.77 µM; with HLA-A*02:01 (setting [9]), at least 20 µM; with HLA-A*26:01 [4] (setting [9]) it was at least 20 µM. Besides, the Kd with HLA-A*69:01 (setting [9]), with HLA-B*15:01 [5] (setting [9]), with HLA-B*15:17 (setting [9]), in the experiment with HLA-B*18:01 (setting [9]), with HLA-B*27:03 (setting [9]) and with HLA-B*39:01 (setting [9]) was at least 20 µM throughout. The Kd in the experiment with HLA-B*46:01 (setting [9]), in the experiment with HLA-B*51:01 [6] (setting [9]) and with HLA-B*57:01 (setting [9]) was at least 20 µM throughout.
GIVSSMHYK: the Kd with HLA-A*02:03 (setting [9]) is at least 20 µM; with HLA-A*02:11 (setting [9]), at least 20 µM; with HLA-A*02:12 (setting [9]), at least 20 µM; in the experiment with HLA-A*02:16 (setting [9]) it was at least 20 µM; with HLA-A*02:19 (setting [9]), at least 20 µM; in the experiment with HLA-A*03:01 [3] (source organism: Sudan ebolavirus - Maleo (1979)), 1.38 µM. The Kd with HLA-A*23:01 (setting [9]), with HLA-A*24:03 (setting [9]), in the experiment with HLA-A*29:02 (setting [9]), with HLA-A*68:02 (setting [9]), with HLA-A*02:01 (setting [9]) and with HLA-A*26:01 [4] (setting [9]) was at least 20 µM in each case. Also, the Kd with HLA-A*31:01, with HLA-A*69:01 (setting [9]), with HLA-B*15:01 [5] (setting [9]), with HLA-B*15:17 (setting [9]), in the experiment with HLA-B*18:01 (setting [9]) and with HLA-B*27:03 (setting [9]) was at least 20 µM in each case. Further, the Kd in the experiment with HLA-B*39:01 (setting [9]), with HLA-B*46:01 (setting [9]), with HLA-B*51:01 [6] (setting [9]) and in the experiment with HLA-B*57:01 (setting [9]) was at least 20 µM in each case.
In turn, GPAEARKVC registered a Kd in the experiment with HLA-B*51:01 [7] (source organism: Yellow fever virus) of at least 20 µM.
Consider LVRDITESL, for which the Kd with HLA-A*02:03 (setting [10]), with HLA-A*02:12 (setting [10]), in the experiment with HLA-A*02:16 (setting [10]), with HLA-A*03:01 [3] (setting [10]), in the experiment with HLA-A*23:01 (setting [10]) and in the experiment with HLA-A*24:03 (setting [10]) was at least 20 µM throughout. Moreover, the Kd in the experiment with HLA-A*29:02 (setting [10]) was at least 20 µM; with HLA-B*07:02 (setting [11]), 39.2 nM; with HLA-A*26:01 [4] (setting [11]) it was at least 20 µM; with HLA-A*69:01 (setting [11]), at least 20 µM; with HLA-B*18:01 (setting [11]) it was at least 20 µM; in the experiment with HLA-B*27:03 (setting [11]), at least 20 µM. Moreover, the dissociation constant (Kd) with HLA-B*39:01 (setting [11]), with HLA-B*51:01 [6] (setting [11]) and with HLA-B*57:01 (setting [11]) was at least 20 µM in each case.
With LVTARQKLK, the Kd with HLA-A*02:03 (setting [12]) was at least 20 µM; with HLA-A*02:11 (setting [12]), at least 20 µM; with HLA-A*02:12 (setting [12]) it was at least 20 µM; with HLA-A*02:16 (setting [12]), at least 20 µM; in the experiment with HLA-A*02:19 (setting [12]) it was at least 20 µM; in the experiment with HLA-A*03:01 [3] (setting [13]), 9 µM. Besides, the Kd with HLA-A*23:01 (setting [12]), in the experiment with HLA-A*24:03 (setting [12]), in the experiment with HLA-A*29:02 (setting [12]), in the experiment with HLA-A*68:02 (setting [12]), in the experiment with HLA-A*02:01 (setting [14]) and with HLA-A*26:01 [4] (setting [14]) was at least 20 µM each time. The Kd with HLA-A*69:01 (setting [14]), in the experiment with HLA-B*15:01 [5] (setting [14]), with HLA-B*15:17 (setting [14]), with HLA-B*18:01 (setting [14]), in the experiment with HLA-B*27:03 (setting [14]) and in the experiment with HLA-B*39:01 (setting [14]) was at least 20 µM each time. Besides, the Kd in the experiment with HLA-B*46:01 (setting [14]), with HLA-B*51:01 [6] (setting [14]) and in the experiment with HLA-B*57:01 (setting [14]) was at least 20 µM throughout.
With NALEKALRW, the Kd with HLA-A*02:03 (setting [13]), in the experiment with HLA-A*02:11 (setting [13]), with HLA-A*02:12 (setting [13]), with HLA-A*02:16 (setting [13]), with HLA-A*02:19 (setting [13]) and with HLA-A*03:01 [3] (setting [13]) was at least 20 µM each time. The Kd with HLA-A*24:03 (setting [13]), in the experiment with HLA-A*29:02 (setting [13]), with HLA-A*68:02 (setting [13]), in the experiment with HLA-A*02:01 (setting [13]), in the experiment with HLA-A*26:01 [4] (setting [13]) and with HLA-A*69:01 (setting [13]) was at least 20 µM throughout. The Kd in the experiment with HLA-B*15:01 [5] (setting [13]) is at least 20 µM; with HLA-B*18:01 (setting [13]), at least 20 µM; in the experiment with HLA-B*27:03 (setting [13]) it was at least 20 µM; with HLA-B*39:01 (setting [13]) it was at least 20 µM; in the experiment with HLA-B*46:01 (setting [13]) it was at least 20 µM; with HLA-B*58:01, 25.5 nM.
With NPVDGSIWY, the equilibrium dissociation constant (Kd) in the experiment with HLA-B*07:02 (setting [15]) is at least 20000 nM; in the experiment with HLA-B*15:01 [8] (source organism: Burkholderia mallei ATCC 23344) it was at least 20 µM; with HLA-B*51:01 [7] (setting [15]), at least 20 µM.
Turning to TPFEVETRL, the results for the Kd in the experiment with HLA-B*07:02 (setting [16]), with HLA-B*15:01 [8] (source organism: Yersinia pestis CA88-4125) and in the experiment with HLA-B*51:01 [7] (setting [16]) were 836 nM, at least 20 µM and at least 20 µM, respectively.

Source of the values: the Immune Epitope Database (IEDB).
